Laboratory results: the domain aggregation screens of Martell et al. (2025)

Experiment: soluble fraction after stress (log2 fold change); higher = more stays soluble; pooled small domains, quantitative proteomics
Conditions: stress: 75 degC
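Further: 20 min heating vs room temperature control held 20 min.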

Sequence	soluble fraction (log2)
HMNDPIGDMLTRIRNAQMRGKSTVSTPASKLRAWVLEVLASEGYIRGFERATTDNGQGELVISLD	-0.682
HMNDREAAYEDLPDELVRVGQKVFIKSLETEGVIVQPPNKKGEVRVRSGNISTNVKRSDLGLPIEKP	0.0745
HMNDRRQDVFELLKSSERPVSAADLAHKFGVTRQVIVADIALLRASDIDIVSTNRGYILKANL	-1.83
HMNDYNLTDREKEVLTFLFQGLEYKEIGMKMSVSPNTIRNHISNIYKKLHVTSKTQAIRVFLNN	-4.09
HMNEAMIMIDLKGKSRDEAVKELDELNLKYRFTGNGIVKDQKPKAGEEINSDTVVEVELSEIK	0.12
HMNEDYFTIAGYASLRGVNIDTSKANMLGRKATKLSREYGYDIGKVTDTRFGKVNSYHLDILKSIFEF	-0.575
HMNEFSYLSELGSEKGDLIKGLQLVQSREGYVSDDAIRAISKHFSIAEAEVEGVLTFYAQFK	-1.28
HMNEIESFSNTKNPFSLTFKTSKDSSYKVEASSNLKKWTTLSQIKGTGNPITFTESRRILFRKQYYRVTLS	-0.176
HMNEISFYPNPAKESLTVKGLSEITSYSISDINGKLIQYGTTFDRINLEKLTKGFYFLTIGNTISKKLIV	-0.311
HMNEISLKEITIEEDHPWRDKKIKELDLKEHILVAMIRRKDQDIIPNGETKIYKDDILVIYD	0.00328
HMNEKFNVYPIPVYNNLNITGLSKPVTYLISSIDGKTIKNGVFQESIDVSDLKSGLYFLQVETKDPVKFIK	-0.991
HMNEKLNEYLNQVKAYLNTSDNKEDIIKELEAVVLEKAEKKYGQITDESISKILSEFGSPAEVAKEYS	0.218
HMNEKLRNYIDTLFEHAPTTVRAVELKEEMFQNLTDKYNDLIAQGKSEEAAFNIAVASIGDVDSLIAGLS	0.179
HMNELGSLIKRKREELGLSQEELARILGYKHKSSINKIELGLADVPRTKVPAFAKALGMTPVEFS	-0.12
HMNELPSVIIMKNGRTRPYELQEISKDEEWLNQTIREHGIEPKDIFIAEFWDGRTAFILNDGRIVK	-0.428
HMNERIKSLRKALGLTQQEFADKLGISRGNIGAYEVGKNAPSDAVISLIVRIFNTNENWLRTGEGEM	-0.776
HMNETSRTRALNILGLKATATQEDIKKAYRSLAKEYHPDKLVGVSEGVKKISEEKFREINEAYEYLI	0.557
HMNEVIIKNWSNAVGRNIKIKTKRGRPIFGRLLAINDQQLTIASKYMRGNATITVAREDVVSMSVS	-3.08
HMNEVRINTAHIEHKYLGEVKVLDIQEMRNARGRDADPLAFLAIRFWSPRGVLVRVKDSRDATPYWLIS	0.199
HMNEYHRNISDEEFVRDIKETAIKLKKETLTGVEYSQNGKYHASTIIHRFGSWKKALELAELNTK	-0.225

Sequence	soluble fraction (log2)
HMNFNYPVIVKNSRINVSGVLSAAKLYTINGQLLQSYKGSGEFTSKTLTKGIYILQVDNARTKVLV	-4.42
HMNFSKEYILVHSYKEIDILDALIVKYEATLVNREFDLFINSYIKINEDYAKLFRDEIISKTSGSMSIKEL	-2.93
HMNFTKHPENPNFVVYRFTDPERANSFRAELIANNISFEEDTEKKKQLIYTLFAIHTKYYNQSMQINIK	-0.843
HMNFTVTDKNAVLYSNDNTKVYESPDINSKLVTTIAKDLPVNVTGITSNGWFRISLEGTYYVPGNGLEQR	-0.139
HMNGADPYEQLGVTRDASDDELKAAHRKLSRENHPDTLMAKGMPPEFIEQANDKMARINAAWDQIRKERGI	0.323
HMNGAITLRVRPSDEGKRLDVFVVSQLTGYTRSFVAGLIGDRHFLVNGQPKKPGYRIKSSDTISGVIPAPA	-2.1
HMNGARALAGAIAEAIRKQVYRVNERLPAERELASHYDVSRGTLRSALALLEQEGLVTRKVGSGTFVMPP	-0.761
HMNGNLRAQVLELMGRADYEPLNKSELSRKLDLQGSDRSSLRILMDELERDHSVVRLKKGRFALKVV	-0.852
HMNGQFIELKNTTGTIIEARVLSFQNGKVKLQRNDGLIFVASISIFDSESIEVIKQKVAEISESKKS	-1.97
HMNGQITPSRAKEIALGHAGVSEGSANFKKIKLDNKNGRPAYEIEFIANNSRYEFEINASNGSIIKFNK	-0.321
HMNGYGALVRLGRSRGWVTVEEINDHLPESAVRTAENVQEITEALGRLSIKVFETRPDEDDLLIT	-0.458
HMNHGDATTETQAEIMAILSDMKPHPITELNTIKRPYEQIDTALTYLINEEKIYRMDGMIFIG	-1.38
HMNHYTEEYILKRMKDFFTTHAYITRRDIESLFGFRRSYATKWLKHFRESGVLKQSGPVNSAVYLL	-3.18
HMNIAESIRKYRKASGLTQEEMAKRLGVTTPAVSKWENGITNPDIALLAPIARLFHISVDTLLSYR	-1.83
HMNIDKLVGSTGTVVRSVTPDTAGLVRVNDEDWRASAEEILYERDAIVVEGIEGVTLIVSKLS	-0.813
HMNIETHIVPKLLAPIRLQEYGVGIFNNIPTKSALKKALKKQLITVDKTVATTATFIKGGETIELAYQ	-3.07
HMNIGEKIKTLRENNNISIEELAEKINDSIENILKYENNELEPTLDKKLALSIALGVTLSDLS	0.971
HMNIGELINKKRTELGLTLEEVGNAVGVSKSTVKKWEDGFISNMRRDKISKLAKVLEMNPVSLITGE	0.00376
HMNIGSKLRYLIEEANITQRQLADALHISPSALNGYINQGKEPDYATLVRIADYFHTSTDYLLGHSNIR	-0.806
